Laboratory results: US8187838B2, “β-Galactoside-α2, 6-sialyltransferase, a gene encoding thereof, and a method for producing thereof” (Japan Tobacco Inc., priority 2006, dated 2012)
Entries after “also recorded” stand apart in the source; their conditions may differ.

Test: Sialyltransferase activity in homogenate of E. coli carrying the JT-ISH-224 gene clones (14C-NeuAc transfer to lactose)
Type: biochemical
Experimental: Sialyltransferase activity was measured as described in J. Biochem., 120, 104-110 (1996) (which is hereby incorporated by reference in its entirety). More specifically, the enzymatic reaction was accomplished by using CMP-NeuAc (70 nmol, containing about 20,000 cpm CMP-NeuAc in which NeuAc was labeled with ^14C; NeuAc represents N-acetylneuraminic acid) as a glycosyl donor substrate, lactose (1.25 μmol) as a glycosyl acceptor substrate, NaCl added to give a concentration of 0.5 M, and the enzyme-containing reaction solution (30 μl) prepared as described above. The enzymatic reaction was carried out at 25° C. for about 10 to 180 minutes. After completion of the reaction, 1.97 ml of 5 mM phosphate buffer (pH 6.8) was added to the reaction solution, which was then applied to a Dowex 1×8 (PO4^3− form, 0.2×2 cm, BIO-RAD) column. The radioactivity was measured for the reaction product, i.e., sialyllactose contained in the eluate (0 to 2 ml) from this column to calculate the enzyme activity. One enzyme unit (1 U) is defined as the amount of enzyme required to transfer 1 micromole of sialic acid per minute.
An induction experiment of protein expression was performed on the five clones obtained in (3) above (i.e., ISH224-N0C0/pTrc, ISH224-N1C0/pTrc, ISH224-N2C0/pTrc, ISH224-N3C0/pTrc and ISH224-N3.1C0/pTrc). A single colony of E. coli TB1 having the expression vector pTrc99A carrying each clone was inoculated into LB medium (6 ml) containing an antibiotic, ampicillin (final concentration 100 μg/mL), and pre-cultured at 30° C. to about A600=0.5, followed by addition of IPTG (isopropyl-β-D(−)-thiogalactopyranoside, Wako Pure Chemical Industries, Ltd., Japan) at a final concentration of 1 mM. After culturing with shaking at 30° C. for an additional 4 hours, the cells in 4 ml culture solution were collected by centrifugation. These cells were suspended in 200 μl of 20 mM Bis-Tris buffer (pH 7.0) containing 0.336% Triton® X-100 and 0.5 M sodium chloride, and ultrasonically homogenized under ice cooling. The resulting homogenate was defined as a crude enzyme solution, diluted 200-fold with 20 mM cacodylate buffer (pH 5.0) containing 0.336% Triton® X-100, and then provided for activity measurement. The reaction was carried out in duplicate. The reaction conditions are as indicated in the footnotes of Tables 1-1 and 1-2.
Reaction Conditions Reaction composition:
Reaction time: 2 minutes Reaction temperature: 30° C.

B1: ISH224-N1C0 (protein, listed as Photobacterium sp.)
chain: MSEENTQSIIKNDINKTIIDEEYVNLEPINQSNISFTKHSWVQTCGTQQLLTEQNKESISLSVVAPRLDDDEKYCFDFNGVSNKGEKYITKVTLNVVAPSLEVYVDHASLPTLQQLMDIIKSEEENPTAQRYIAWGRIVPTDEQMKELNITSFALINNHTPADLVQEIVKQAQTKHRLNVKLSSNTAHSFDNLVPILKELNSFNNVTVTNIDLYDDGSAEYVNLYNWRDTLNKTDNLKIGKDYLEDVINGINEDTSNTGTSSVYNWQKLYPANYHFLRKDYLTLEPSLHELRDYIGDSLKQMQWDGFKKFNSKQQELFLSIVNFDKQKLQNEYNSSNLPNFVFTGTTVWAGNHEREYYAKQQINVINNAINESSPHYLGNSYDLFFKGHPGGGIINTLIMQNYPSMVDIPSKISFEVLMMTDMLPDAVAGIASSLYFTIPAEKIKFIVFTSTETITDRETALRSPLVQVMIKLGIVKEENVLFWADLPNCETGVCIAV
Crude enzyme solution diluted 200-fold, lactose, 14C-CMP-sialic acid, 2 minutes, 30° C., Round 1
  Radioactivity (cpm) Round 1: 1552 cpm
Crude enzyme solution diluted 200-fold, lactose, 14C-CMP-sialic acid, 2 minutes, 30° C., Round 2
  Radioactivity (cpm) Round 2: 1711 cpm
Crude enzyme solution diluted 200-fold, lactose, 14C-CMP-sialic acid, 2 minutes, 30° C., average of duplicate
  Radioactivity (cpm) Average: 1631.5 cpm
Crude enzyme solution from E. coli TB1, listed as ISH224-N1C0/pTrc
  sialyltransferase activity of the expressed clone (in words): expressed sialyltransferase; also recorded: retained the activity
